According to article PMC9670026:

Tests used:
Protein A [1] = target: Protein A (UniProt P38507); experiment: LSPR (localized surface plasmon resonance) biosensor; Protein A immobilised by EDC/NHS on the gold-nanostructure sensor chip; IgG 0.45 mg/mL in running buffer, 1 mL injected at 1 mL/min, one injection (n = 1); running buffer 10 mM citrate, 150 mM NaCl, pH 3.5; room temperature; Langmuir 1:1 fit; apparent affinity
Protein A [2] = target: Protein A (UniProt P38507); experiment: LSPR (localized surface plasmon resonance) biosensor; Protein A immobilised by EDC/NHS on the gold-nanostructure sensor chip; IgG 0.45 mg/mL in running buffer, 1 mL injected at 1 mL/min, one injection (n = 1); running buffer 10 mM citrate, 150 mM NaCl, pH 3.8; room temperature; Langmuir 1:1 fit; apparent affinity
Protein A [3] = target: Protein A (UniProt P38507); experiment: LSPR (localized surface plasmon resonance) biosensor; Protein A immobilised by EDC/NHS on the gold-nanostructure sensor chip; IgG 0.45 mg/mL in running buffer, 1 mL injected at 1 mL/min, one injection (n = 1); running buffer 10 mM citrate, 150 mM NaCl, pH 4.0; room temperature; Langmuir 1:1 fit; apparent affinity
Protein A [4] = target: Protein A (UniProt P38507); experiment: LSPR (localized surface plasmon resonance) biosensor; Protein A immobilised by EDC/NHS on the gold-nanostructure sensor chip; IgG 0.45 mg/mL in running buffer, 1 mL injected at 1 mL/min, one injection (n = 1); running buffer PBS pH 7.4; room temperature; Langmuir 1:1 fit; apparent affinity
[5] = target: Human IgG1, monomer fraction (human); experiment: SEC-MALS; SEC-MALS-RI-UV on Superdex 200 Increase 10/300 GL, 1 mL/min, 100 uL injected, room temperature; 0.45 mg/mL total IgG; aggregate fraction of the IgG1 batch
[6] = target: Human IgG1 monoclonal antibody, monomer fraction (UniProt P01857); experiment: LSPR (localized surface plasmon resonance) fiber-optical nanoplasmonic biosensor, ArgusEye AB; settings: room temperature under ambient conditions, pH 7.4: 140 mM sodium chloride, 2.7 mM potassium chloride, 10 mM phosphate, pH 4.0, 3.8 and 3.5: 150 mM NaCl with 10 mM citrate, pH 7.4: PBS (10 mM phosphate), pH 4.0, 3.8 and 3.5: 10 mM citrate (Methods and Results text). The Figure 3 caption state
[7] = target: Human IgG1 monoclonal antibody, aggregate fraction (mainly dimers) (UniProt P01857); experiment: as above; settings: room temperature under ambient conditions, pH 7.4: 140 mM sodium chloride, 2.7 mM potassium chloride, 10 mM phosphate, pH 4.0, 3.8 and 3.5: 150 mM NaCl with 10 mM citrate, pH 7.4: PBS (10 mM phosphate), pH 4.0, 3.8 and 3.5: 10 mM citrate (Methods and Results text). The Figure 3 caption state

Substance	Kd (Protein A [1])	koff (Protein A [1])	kon (Protein A [1])	Kd (Protein A [2])	koff (Protein A [2])	kon (Protein A [2])	Kd (Protein A [3])	koff (Protein A [3])	kon (Protein A [3])	Kd (Protein A [4])	koff (Protein A [4])	kon (Protein A [4])	other results
Human IgG1, aggregate fraction (antibody)	0.35 µM	0.0099 s⁻¹	28000 M⁻¹ s⁻¹	0.065 µM	0.0024 s⁻¹	36000 M⁻¹ s⁻¹	0.026 µM	0.00092 s⁻¹	36000 M⁻¹ s⁻¹	0.0012 µM	2.9e-05 s⁻¹	25000 M⁻¹ s⁻¹	
Human IgG1, monomer fraction (antibody)	0.66 µM	0.011 s⁻¹	17000 M⁻¹ s⁻¹	0.33 µM	0.01 s⁻¹	30000 M⁻¹ s⁻¹	0.13 µM	0.004 s⁻¹	31000 M⁻¹ s⁻¹	0.0013 µM	2.9e-05 s⁻¹	22000 M⁻¹ s⁻¹	stoichiometry N [5]: 2
Protein A (staphylococcal protein A, SpA)													koff ([6]; pH 3.5): 0.011 s⁻¹; kon ([6]; pH 3.5): 17000 M⁻¹ s⁻¹; koff ([6]; pH 3.8): 0.01 s⁻¹; kon ([6]; pH 3.8): 30000 M⁻¹ s⁻¹; koff ([6]; pH 4.0): 0.004 s⁻¹; kon ([6]; pH 4.0): 31000 M⁻¹ s⁻¹; koff ([6]; pH 7.4): 2.9e-05 s⁻¹; kon ([6]; pH 7.4): 22000 M⁻¹ s⁻¹; koff ([7]; pH 3.5): 0.0099 s⁻¹; kon ([7]; pH 3.5): 28000 M⁻¹ s⁻¹; koff ([7]; pH 3.8): 0.0024 s⁻¹; kon ([7]; pH 3.8): 36000 M⁻¹ s⁻¹; koff ([7]; pH 4.0): 0.00092 s⁻¹; kon ([7]; pH 4.0): 36000 M⁻¹ s⁻¹; koff ([7]; pH 7.4): 2.9e-05 s⁻¹; kon ([7]; pH 7.4): 25000 M⁻¹ s⁻¹
